Data: the Human Domainome abundance scans (Beltran et al. 2025)
± gives the uncertainty stated by the source.

B1: POU domain, class 5, transcription factor 1, residues 134 to 212; numbered along this chain, Q01860 (parent)
chain: EESQDIKALQKELEQFAKLLKQKRITLGYTQADVGLTLGVLFGKVFSQTTICRFEALQLSFKNMCKLRPLLQKWVEEAD

Variants of: B1
Experiment: abundance fitness (aPCA) (normalised: wild type 0, dead -1); higher = more abundant; growth selection in yeast, the domain comes from the species named
Details: Homo sapiens

| Variant | abundance fitness |
| --- | --- |
| EESQDIKALQKELYQFAKLLKQKRITLGYTQADVGLTLGVLFGKVFSQTTICRFEALQLSFKNMCKLRPLLQKWVEEAD | 0.076 ± 0.2 |
| EESQDIKALQKELEAFAKLLKQKRITLGYTQADVGLTLGVLFGKVFSQTTICRFEALQLSFKNMCKLRPLLQKWVEEAD | 0.127 ± 0.12 |
| EESQDIKALQKELECFAKLLKQKRITLGYTQADVGLTLGVLFGKVFSQTTICRFEALQLSFKNMCKLRPLLQKWVEEAD | -0.218 ± 0.2 |
| EESQDIKALQKELEDFAKLLKQKRITLGYTQADVGLTLGVLFGKVFSQTTICRFEALQLSFKNMCKLRPLLQKWVEEAD | 0.089 ± 0.18 |
| EESQDIKALQKELEEFAKLLKQKRITLGYTQADVGLTLGVLFGKVFSQTTICRFEALQLSFKNMCKLRPLLQKWVEEAD | 0.07 ± 0.15 |
| EESQDIKALQKELEGFAKLLKQKRITLGYTQADVGLTLGVLFGKVFSQTTICRFEALQLSFKNMCKLRPLLQKWVEEAD | 0.008 ± 0.086 |
| EESQDIKALQKELEHFAKLLKQKRITLGYTQADVGLTLGVLFGKVFSQTTICRFEALQLSFKNMCKLRPLLQKWVEEAD | -0.27 ± 0.3 |
| EESQDIKALQKELEKFAKLLKQKRITLGYTQADVGLTLGVLFGKVFSQTTICRFEALQLSFKNMCKLRPLLQKWVEEAD | -0.631 ± 0.43 |
| EESQDIKALQKELELFAKLLKQKRITLGYTQADVGLTLGVLFGKVFSQTTICRFEALQLSFKNMCKLRPLLQKWVEEAD | -0.259 ± 0.1 |
| EESQDIKALQKELEMFAKLLKQKRITLGYTQADVGLTLGVLFGKVFSQTTICRFEALQLSFKNMCKLRPLLQKWVEEAD | -0.184 ± 0.17 |
| EESQDIKALQKELERFAKLLKQKRITLGYTQADVGLTLGVLFGKVFSQTTICRFEALQLSFKNMCKLRPLLQKWVEEAD | -0.181 ± 0.083 |
| EESQDIKALQKELESFAKLLKQKRITLGYTQADVGLTLGVLFGKVFSQTTICRFEALQLSFKNMCKLRPLLQKWVEEAD | -0.094 ± 0.12 |
| EESQDIKALQKELETFAKLLKQKRITLGYTQADVGLTLGVLFGKVFSQTTICRFEALQLSFKNMCKLRPLLQKWVEEAD | -0.329 ± 0.23 |
| EESQDIKALQKELEWFAKLLKQKRITLGYTQADVGLTLGVLFGKVFSQTTICRFEALQLSFKNMCKLRPLLQKWVEEAD | -0.442 ± 0.13 |
| EESQDIKALQKELEQAAKLLKQKRITLGYTQADVGLTLGVLFGKVFSQTTICRFEALQLSFKNMCKLRPLLQKWVEEAD | -0.191 ± 0.32 |
| EESQDIKALQKELEQCAKLLKQKRITLGYTQADVGLTLGVLFGKVFSQTTICRFEALQLSFKNMCKLRPLLQKWVEEAD | -0.23 ± 0.21 |
| EESQDIKALQKELEQEAKLLKQKRITLGYTQADVGLTLGVLFGKVFSQTTICRFEALQLSFKNMCKLRPLLQKWVEEAD | -0.438 ± 0.39 |
| EESQDIKALQKELEQGAKLLKQKRITLGYTQADVGLTLGVLFGKVFSQTTICRFEALQLSFKNMCKLRPLLQKWVEEAD | -0.522 ± 0.23 |
| EESQDIKALQKELEQLAKLLKQKRITLGYTQADVGLTLGVLFGKVFSQTTICRFEALQLSFKNMCKLRPLLQKWVEEAD | -0.133 ± 0.16 |
| EESQDIKALQKELEQPAKLLKQKRITLGYTQADVGLTLGVLFGKVFSQTTICRFEALQLSFKNMCKLRPLLQKWVEEAD | -0.023 ± 0.34 |
| EESQDIKALQKELEQRAKLLKQKRITLGYTQADVGLTLGVLFGKVFSQTTICRFEALQLSFKNMCKLRPLLQKWVEEAD | -0.394 ± 0.15 |
| EESQDIKALQKELEQWAKLLKQKRITLGYTQADVGLTLGVLFGKVFSQTTICRFEALQLSFKNMCKLRPLLQKWVEEAD | -0.341 ± 0.3 |
| EESQDIKALQKELEQFGKLLKQKRITLGYTQADVGLTLGVLFGKVFSQTTICRFEALQLSFKNMCKLRPLLQKWVEEAD | 0.11 ± 0.13 |

| Variant | abundance fitness |
| --- | --- |
| EESQDIKALQKELEQFPKLLKQKRITLGYTQADVGLTLGVLFGKVFSQTTICRFEALQLSFKNMCKLRPLLQKWVEEAD | -0.357 ± 0.45 |
| EESQDIKALQKELEQFRKLLKQKRITLGYTQADVGLTLGVLFGKVFSQTTICRFEALQLSFKNMCKLRPLLQKWVEEAD | -0.768 ± 0.32 |
| EESQDIKALQKELEQFTKLLKQKRITLGYTQADVGLTLGVLFGKVFSQTTICRFEALQLSFKNMCKLRPLLQKWVEEAD | 0.228 ± 0.38 |
| EESQDIKALQKELEQFVKLLKQKRITLGYTQADVGLTLGVLFGKVFSQTTICRFEALQLSFKNMCKLRPLLQKWVEEAD | -0.145 ± 0.42 |
| EESQDIKALQKELEQFAALLKQKRITLGYTQADVGLTLGVLFGKVFSQTTICRFEALQLSFKNMCKLRPLLQKWVEEAD | 0.021 ± 0.11 |
| EESQDIKALQKELEQFAELLKQKRITLGYTQADVGLTLGVLFGKVFSQTTICRFEALQLSFKNMCKLRPLLQKWVEEAD | -0.415 ± 0.2 |
| EESQDIKALQKELEQFAFLLKQKRITLGYTQADVGLTLGVLFGKVFSQTTICRFEALQLSFKNMCKLRPLLQKWVEEAD | -0.268 ± 0.44 |
| EESQDIKALQKELEQFAGLLKQKRITLGYTQADVGLTLGVLFGKVFSQTTICRFEALQLSFKNMCKLRPLLQKWVEEAD | -0.147 ± 0.12 |
| EESQDIKALQKELEQFAHLLKQKRITLGYTQADVGLTLGVLFGKVFSQTTICRFEALQLSFKNMCKLRPLLQKWVEEAD | -0.523 ± 0.48 |
| EESQDIKALQKELEQFALLLKQKRITLGYTQADVGLTLGVLFGKVFSQTTICRFEALQLSFKNMCKLRPLLQKWVEEAD | -0.091 ± 0.11 |
| EESQDIKALQKELEQFAMLLKQKRITLGYTQADVGLTLGVLFGKVFSQTTICRFEALQLSFKNMCKLRPLLQKWVEEAD | 0.052 ± 0.15 |
| EESQDIKALQKELEQFAQLLKQKRITLGYTQADVGLTLGVLFGKVFSQTTICRFEALQLSFKNMCKLRPLLQKWVEEAD | 0.029 ± 0.19 |
| EESQDIKALQKELEQFARLLKQKRITLGYTQADVGLTLGVLFGKVFSQTTICRFEALQLSFKNMCKLRPLLQKWVEEAD | -0.222 ± 0.099 |
| EESQDIKALQKELEQFASLLKQKRITLGYTQADVGLTLGVLFGKVFSQTTICRFEALQLSFKNMCKLRPLLQKWVEEAD | 0.192 ± 0.13 |
| EESQDIKALQKELEQFATLLKQKRITLGYTQADVGLTLGVLFGKVFSQTTICRFEALQLSFKNMCKLRPLLQKWVEEAD | 0.074 ± 0.13 |
| EESQDIKALQKELEQFAVLLKQKRITLGYTQADVGLTLGVLFGKVFSQTTICRFEALQLSFKNMCKLRPLLQKWVEEAD | -0.466 ± 0.16 |
| EESQDIKALQKELEQFAWLLKQKRITLGYTQADVGLTLGVLFGKVFSQTTICRFEALQLSFKNMCKLRPLLQKWVEEAD | -0.19 ± 0.18 |
| EESQDIKALQKELEQFAKALKQKRITLGYTQADVGLTLGVLFGKVFSQTTICRFEALQLSFKNMCKLRPLLQKWVEEAD | -0.49 ± 0.35 |
| EESQDIKALQKELEQFAKCLKQKRITLGYTQADVGLTLGVLFGKVFSQTTICRFEALQLSFKNMCKLRPLLQKWVEEAD | 0.164 ± 0.22 |
| EESQDIKALQKELEQFAKELKQKRITLGYTQADVGLTLGVLFGKVFSQTTICRFEALQLSFKNMCKLRPLLQKWVEEAD | -0.447 ± 0.32 |
| EESQDIKALQKELEQFAKGLKQKRITLGYTQADVGLTLGVLFGKVFSQTTICRFEALQLSFKNMCKLRPLLQKWVEEAD | -0.063 ± 0.13 |
| EESQDIKALQKELEQFAKKLKQKRITLGYTQADVGLTLGVLFGKVFSQTTICRFEALQLSFKNMCKLRPLLQKWVEEAD | 0.373 ± 0.26 |
| EESQDIKALQKELEQFAKQLKQKRITLGYTQADVGLTLGVLFGKVFSQTTICRFEALQLSFKNMCKLRPLLQKWVEEAD | 0.04 ± 0.36 |

| Variant | abundance fitness |
| --- | --- |
| EESQDIKALQKELEQFAKRLKQKRITLGYTQADVGLTLGVLFGKVFSQTTICRFEALQLSFKNMCKLRPLLQKWVEEAD | -0.284 ± 0.15 |
| EESQDIKALQKELEQFAKTLKQKRITLGYTQADVGLTLGVLFGKVFSQTTICRFEALQLSFKNMCKLRPLLQKWVEEAD | -0.49 ± 0.32 |
| EESQDIKALQKELEQFAKWLKQKRITLGYTQADVGLTLGVLFGKVFSQTTICRFEALQLSFKNMCKLRPLLQKWVEEAD | -0.181 ± 0.16 |
| EESQDIKALQKELEQFAKLAKQKRITLGYTQADVGLTLGVLFGKVFSQTTICRFEALQLSFKNMCKLRPLLQKWVEEAD | -0.704 ± 0.27 |
| EESQDIKALQKELEQFAKLEKQKRITLGYTQADVGLTLGVLFGKVFSQTTICRFEALQLSFKNMCKLRPLLQKWVEEAD | -0.313 ± 0.24 |
| EESQDIKALQKELEQFAKLGKQKRITLGYTQADVGLTLGVLFGKVFSQTTICRFEALQLSFKNMCKLRPLLQKWVEEAD | -0.801 ± 0.23 |
| EESQDIKALQKELEQFAKLMKQKRITLGYTQADVGLTLGVLFGKVFSQTTICRFEALQLSFKNMCKLRPLLQKWVEEAD | -0.452 ± 0.39 |
| EESQDIKALQKELEQFAKLPKQKRITLGYTQADVGLTLGVLFGKVFSQTTICRFEALQLSFKNMCKLRPLLQKWVEEAD | -0.303 ± 0.24 |
| EESQDIKALQKELEQFAKLRKQKRITLGYTQADVGLTLGVLFGKVFSQTTICRFEALQLSFKNMCKLRPLLQKWVEEAD | -0.299 ± 0.14 |
| EESQDIKALQKELEQFAKLSKQKRITLGYTQADVGLTLGVLFGKVFSQTTICRFEALQLSFKNMCKLRPLLQKWVEEAD | -0.399 ± 0.25 |
| EESQDIKALQKELEQFAKLVKQKRITLGYTQADVGLTLGVLFGKVFSQTTICRFEALQLSFKNMCKLRPLLQKWVEEAD | -0.056 ± 0.12 |
| EESQDIKALQKELEQFAKLWKQKRITLGYTQADVGLTLGVLFGKVFSQTTICRFEALQLSFKNMCKLRPLLQKWVEEAD | -0.741 ± 0.38 |
| EESQDIKALQKELEQFAKLLAQKRITLGYTQADVGLTLGVLFGKVFSQTTICRFEALQLSFKNMCKLRPLLQKWVEEAD | -0.392 ± 0.19 |
| EESQDIKALQKELEQFAKLLGQKRITLGYTQADVGLTLGVLFGKVFSQTTICRFEALQLSFKNMCKLRPLLQKWVEEAD | -0.707 ± 0.18 |
| EESQDIKALQKELEQFAKLLPQKRITLGYTQADVGLTLGVLFGKVFSQTTICRFEALQLSFKNMCKLRPLLQKWVEEAD | -0.353 ± 0.3 |
| EESQDIKALQKELEQFAKLLQQKRITLGYTQADVGLTLGVLFGKVFSQTTICRFEALQLSFKNMCKLRPLLQKWVEEAD | -0.2 ± 0.27 |
| EESQDIKALQKELEQFAKLLRQKRITLGYTQADVGLTLGVLFGKVFSQTTICRFEALQLSFKNMCKLRPLLQKWVEEAD | -0.191 ± 0.12 |
| EESQDIKALQKELEQFAKLLSQKRITLGYTQADVGLTLGVLFGKVFSQTTICRFEALQLSFKNMCKLRPLLQKWVEEAD | -0.189 ± 0.14 |
| EESQDIKALQKELEQFAKLLVQKRITLGYTQADVGLTLGVLFGKVFSQTTICRFEALQLSFKNMCKLRPLLQKWVEEAD | -0.373 ± 0.28 |
| EESQDIKALQKELEQFAKLLKAKRITLGYTQADVGLTLGVLFGKVFSQTTICRFEALQLSFKNMCKLRPLLQKWVEEAD | -0.151 ± 0.3 |
| EESQDIKALQKELEQFAKLLKFKRITLGYTQADVGLTLGVLFGKVFSQTTICRFEALQLSFKNMCKLRPLLQKWVEEAD | 0.56 ± 0.4 |
| EESQDIKALQKELEQFAKLLKHKRITLGYTQADVGLTLGVLFGKVFSQTTICRFEALQLSFKNMCKLRPLLQKWVEEAD | 0.027 ± 0.29 |
| EESQDIKALQKELEQFAKLLKMKRITLGYTQADVGLTLGVLFGKVFSQTTICRFEALQLSFKNMCKLRPLLQKWVEEAD | -0.189 ± 0.45 |
